Reference: PMC3792076, “Elucidation of Substrate Specificity in Aspergillus nidulans UDP-Galactose-4-Epimerase” (PLoS ONE, 2013)

Target: UDP-galactose-4-epimerase from Aspergillus nidulans (Aspergillus nidulans)
Experiment: crystal structure; microbatch at 277 K, 20% (w/v) PEG3350, 0.1 M Bis-Tris propane pH 7.5, 0.2 M sodium fluoride, grown with 10 mM UDP-glucose; space group C2, three monomers per asymmetric unit (one homodimer and one monomer that forms a dimer through symmetry); 2.8 Å

UDP-galactose-4-epimerase from Aspergillus nidulans (enzyme)
stoichiometry N: 2
